Data from paper PMC11998537, “Restriction of influenza A virus replication by host DCAF7-CRL4B axis” (Journal of Virology, 2025).

Tests used:
[1] = biological target: T1, His-PB1 (influenza A/Puerto Rico/8/1934 (PR8, …, UniProt P03431 1-757)); test: pull-down; details: both partners purified
T1 construct: source: E. coli BL21, purified

[2] = biological target: T2, His-PB2 (influenza A/Puerto Rico/8/1934 (PR8, …, UniProt P03428 1-759)); test: pull-down; details: both partners purified
T2 construct: source: E. coli BL21, purified

B1: GST-DCAF7 (natural protein, human, UniProt P61962 1-342, looked up)
chain: MSLHGKRKEIYKYEAPWTVYAMNWSVRPDKRFRLALGSFVEEYNNKVQLVGLDEESSEFICRNTFDHPYPTTKLMWIPDTKGVYPDLLATSGDYLRVWRVGETETRLECLLNNNKNSDFCAPLTSFDWNEVDPYLLGTSSIDTTCTIWGLETGQVLGRVNLVSGHVKTQLIAHDKEVYDIAFSRAGGGRDMFASVGADGSVRMFDLRHLEHSTIIYEDPQHHPLLRLCWNKQDPNYLATMAMDGMEVVILDVRVPCTPVARLNNHRACVNGIAWAPHSSCHICTAADDHQALIWDIQQMPRAIEDPILAYTAEGEINNVQWASTQPDWIAICYNNCLEILRV
notes: source: E. coli BL21, purified
binding result [1]: binds | binding result [2]: binds
